Data published in article PMC9493007.
Where “and” joins values, the source holds several entries; their conditions need not be identical. Equal values may be shown once.

How the values were obtained:
[1] = molecular target: YsaN wild type full length (untagged) (Yersinia enterocolitica 8081); assay: SEC; analytical Superdex 200 HR 10/30; about 10 µM protein pre-incubated with 1.5 mM ADP and 1.5 mM AlCl3 (ADP.AlFX); 50 mM Tris pH 8.0, 100 mM KCl, 4 mM MgCl2, 5 mM NaF, 1 mM DTT, 5% glycerol; 0.5 ml/min, room temperature; apparent molecular weight from a standard curve
[2] = molecular target: YsaN∆83 (Yersinia enterocolitica 8081); assay: negative-stain TEM
[3] = molecular target: YsaN∆83 (Yersinia enterocolitica 8081); assay: SEC; analytical Superdex 200 HR 10/30; about 10 µM protein pre-incubated with 1.5 mM ADP and 1.5 mM AlCl3 (ADP.AlFX); 50 mM Tris pH 8.0, 100 mM KCl, 4 mM MgCl2, 5 mM NaF, 1 mM DTT, 5% glycerol; 0.5 ml/min, room temperature; apparent molecular weight from a standard curve

| Substance | stoichiometry N [1] | stoichiometry N [2] | stoichiometry N [3] |
| --- | --- | --- | --- |
| YsaN wild type full length (untagged) (enzyme) | 6 and 12 | – | – |
| YsaN∆83 (domain or fragment) | – | 6 | 6 |
